Test results published in publication PMC11229335, “The translocation activity of Rad54 reduces crossover outcomes during homologous recombination”.
Substitutions are numbered along the chain they refer to.

Assays:
Experiment in all cases: EMSA; 3 mM MgCl2; 0-50 nM protein, 10 nM DNA; EMSA: 35 mM Tris-Cl pH 7.5, 3 mM MgCl2, 50 mM KCl, 1 mM DTT, 10% glycerol, 30 C, 5 min; curtains: 20 mM Tris-OAc pH 7.5, 50 mM NaCl, 10 mM MgOAc2, 200 ng/ul BSA, 1 mM DTT
Conditions in all cases: protein: recombinant; label: 5'-Atto647N on strand 1; blunt
[1] = target: T1, Rad54 R272Q (Saccharomyces cerevisiae, UniProt P32863 1-898, R272Q)
T1 sequence: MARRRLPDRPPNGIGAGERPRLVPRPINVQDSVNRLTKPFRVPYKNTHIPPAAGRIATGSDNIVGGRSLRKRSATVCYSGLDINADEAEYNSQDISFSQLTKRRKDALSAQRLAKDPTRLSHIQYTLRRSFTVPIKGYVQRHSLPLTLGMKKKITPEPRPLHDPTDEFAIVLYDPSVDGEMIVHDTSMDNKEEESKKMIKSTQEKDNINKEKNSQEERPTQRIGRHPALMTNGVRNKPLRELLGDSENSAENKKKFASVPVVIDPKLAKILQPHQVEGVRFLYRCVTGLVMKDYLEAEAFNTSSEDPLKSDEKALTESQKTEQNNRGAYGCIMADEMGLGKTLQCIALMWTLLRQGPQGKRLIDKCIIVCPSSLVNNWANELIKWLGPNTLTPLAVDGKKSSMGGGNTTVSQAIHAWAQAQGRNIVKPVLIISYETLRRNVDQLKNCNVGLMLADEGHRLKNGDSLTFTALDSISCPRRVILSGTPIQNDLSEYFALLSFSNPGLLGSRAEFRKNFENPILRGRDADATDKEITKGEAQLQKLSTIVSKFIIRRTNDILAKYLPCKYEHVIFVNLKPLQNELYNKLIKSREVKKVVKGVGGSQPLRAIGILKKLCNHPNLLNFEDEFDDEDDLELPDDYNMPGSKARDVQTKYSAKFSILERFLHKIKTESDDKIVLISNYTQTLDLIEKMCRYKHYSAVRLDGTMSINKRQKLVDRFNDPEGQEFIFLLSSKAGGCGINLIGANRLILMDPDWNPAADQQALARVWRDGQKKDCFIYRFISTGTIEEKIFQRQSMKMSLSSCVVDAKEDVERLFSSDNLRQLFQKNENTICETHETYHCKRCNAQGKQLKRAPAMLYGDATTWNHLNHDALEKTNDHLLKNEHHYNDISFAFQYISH

[2] = target: T2, Rad54 R272A (Saccharomyces cerevisiae, UniProt P32863 1-898, R272A)
T2 sequence: T1 sequence with Q272A

[3] = target: T3, Rad54 (Saccharomyces cerevisiae, UniProt P32863 1-898)
T3 sequence: T1 sequence with Q272R

Measured: binding result

B1: 90-mer EMSA dsDNA (dsDNA)
DNA 1: TGTAAAACGACGGCCAGTGAATTCGAGCTCGGTACCCGGGGATCCTCTAGAGTCGACCTGCAGGCATGCAAGCTTGGCGTAATCATGGTC
DNA 2: GACCATGATTACGCCAAGCTTGCATGCCTGCAGGTCGACTCTAGAGGATCCCCGGGTACCGAGCTCGAATTCACTGGCCGTCGTTTTACA
binds: all assays above
